From US20130336893A1 (Sanofi, published 2013)
*1 amine or outer side, *2 acyl side, *3 side chain or, on linkers, in order; H or OH if unused. Where no end group is shown, it is not given here. [ ]: non-standard residue; d: D form. Cysteamide = C(CS[*:3])N[*:1]

B1: SEQ ID NO: (11) (peptide)
peptide: HGQGTFTSDLSKQMDSRRAQDFIEWLKNGGPSSGAPPPS-NH2
B2: SEQ ID NO: (8) (peptide)
peptide: HSQGTFTSDLSKQMDSRRAQDFIEWLKNGGPSSGAPPPS-Cysteamide
B3: SEQ ID NO: (10) (peptide)
peptide: HSEGTFTSDLSKQMDSRRAQDFIEWLKNGGPSSGAPPPS-NH2
B4: SEQ ID NO: (31) (peptide)
peptide: H[dS]QGTFTSDLSKQMDSRRARDFIEWLKNGGPSSGAPPPS-NH2
modifications: N-terminus assumed
SMILES: CC[C@H](C)[C@H](NC(=O)[C@H](Cc1ccccc1)NC(=O)[C@H](CC(=O)O)NC(=O)[C@H](CCCNC(=N)N)NC(=O)[C@H](C)NC(=O)[C@H](CCCNC(=N)N)NC(=O)[C@H](CCCNC(=N)N)NC(=O)[C@H](CO)NC(=O)[C@H](CC(=O)O)NC(=O)[C@H](CCSC)NC(=O)[C@H](CCC(N)=O)NC(=O)[C@H](CCCCN)NC(=O)[C@H](CO)NC(=O)[C@H](CC(C)C)NC(=O)[C@H](CC(=O)O)NC(=O)[C@H](CO)NC(=O)[C@@H](NC(=O)[C@H](Cc1ccccc1)NC(=O)[C@@H](NC(=O)CNC(=O)[C@H](CCC(N)=O)NC(=O)[C@@H](CO)NC(=O)[C@@H](N)Cc1c[nH]cn1)[C@@H](C)O)[C@@H](C)O)C(=O)N[C@@H](CCC(=O)O)C(=O)N[C@@H](Cc1c[nH]c2ccccc12)C(=O)N[C@@H](CC(C)C)C(=O)N[C@@H](CCCCN)C(=O)N[C@@H](CC(N)=O)C(=O)NCC(=O)NCC(=O)N1CCC[C@H]1C(=O)N[C@@H](CO)C(=O)N[C@@H](CO)C(=O)NCC(=O)N[C@@H](C)C(=O)N1CCC[C@H]1C(=O)N1CCC[C@H]1C(=O)N1CCC[C@H]1C(=O)N[C@@H](CO)C(N)=O
B5: SEQ ID NO: (40) (peptide)
peptide: H[dA]QGTFTSDLSKQMDSRRAQDFIEWLKNGGPSSGAPPPS-NH2
B6: SEQ ID NO: (29) (peptide)
peptide: H[dS]QGTFTSDLSKQMDSRRAHDFIEWLKNGGPSSGAPPPS-NH2
modifications: N-terminus assumed
SMILES: CC[C@H](C)[C@H](NC(=O)[C@H](Cc1ccccc1)NC(=O)[C@H](CC(=O)O)NC(=O)[C@H](Cc1c[nH]cn1)NC(=O)[C@H](C)NC(=O)[C@H](CCCNC(=N)N)NC(=O)[C@H](CCCNC(=N)N)NC(=O)[C@H](CO)NC(=O)[C@H](CC(=O)O)NC(=O)[C@H](CCSC)NC(=O)[C@H](CCC(N)=O)NC(=O)[C@H](CCCCN)NC(=O)[C@H](CO)NC(=O)[C@H](CC(C)C)NC(=O)[C@H](CC(=O)O)NC(=O)[C@H](CO)NC(=O)[C@@H](NC(=O)[C@H](Cc1ccccc1)NC(=O)[C@@H](NC(=O)CNC(=O)[C@H](CCC(N)=O)NC(=O)[C@@H](CO)NC(=O)[C@@H](N)Cc1c[nH]cn1)[C@@H](C)O)[C@@H](C)O)C(=O)N[C@@H](CCC(=O)O)C(=O)N[C@@H](Cc1c[nH]c2ccccc12)C(=O)N[C@@H](CC(C)C)C(=O)N[C@@H](CCCCN)C(=O)N[C@@H](CC(N)=O)C(=O)NCC(=O)NCC(=O)N1CCC[C@H]1C(=O)N[C@@H](CO)C(=O)N[C@@H](CO)C(=O)NCC(=O)N[C@@H](C)C(=O)N1CCC[C@H]1C(=O)N1CCC[C@H]1C(=O)N1CCC[C@H]1C(=O)N[C@@H](CO)C(N)=O
B7: SEQ ID NO: (39) (peptide)
peptide: HAQGTFTSDLSKQMDSRRAQDFIEWLKNGGPSSGAPPPS-NH2
B8: SEQ ID NO: (36) (peptide)
peptide: HSQGTFTSDLSKQMDSRRAQDFIEWLKNGGPSSGAPPPS-{NH‑CH2‑CH2‑S‑tBu}
B9: SEQ ID NO: (50) (peptide)
peptide: HSQGTFTSDLSKQMDSRRAQDFIEWLKNGGPSSGAPPPS-{NH‑(CH2)5‑OH}
B10: SEQ ID NO: (35) (peptide)
peptide: H[dS]QGTFTSDLSKQMDSRRAQLFIEWLKNGGPSSGAPPPS-NH2
modifications: N-terminus assumed
SMILES: CC[C@H](C)[C@H](NC(=O)[C@H](Cc1ccccc1)NC(=O)[C@H](CC(C)C)NC(=O)[C@H](CCC(N)=O)NC(=O)[C@H](C)NC(=O)[C@H](CCCNC(=N)N)NC(=O)[C@H](CCCNC(=N)N)NC(=O)[C@H](CO)NC(=O)[C@H](CC(=O)O)NC(=O)[C@H](CCSC)NC(=O)[C@H](CCC(N)=O)NC(=O)[C@H](CCCCN)NC(=O)[C@H](CO)NC(=O)[C@H](CC(C)C)NC(=O)[C@H](CC(=O)O)NC(=O)[C@H](CO)NC(=O)[C@@H](NC(=O)[C@H](Cc1ccccc1)NC(=O)[C@@H](NC(=O)CNC(=O)[C@H](CCC(N)=O)NC(=O)[C@@H](CO)NC(=O)[C@@H](N)Cc1c[nH]cn1)[C@@H](C)O)[C@@H](C)O)C(=O)N[C@@H](CCC(=O)O)C(=O)N[C@@H](Cc1c[nH]c2ccccc12)C(=O)N[C@@H](CC(C)C)C(=O)N[C@@H](CCCCN)C(=O)N[C@@H](CC(N)=O)C(=O)NCC(=O)NCC(=O)N1CCC[C@H]1C(=O)N[C@@H](CO)C(=O)N[C@@H](CO)C(=O)NCC(=O)N[C@@H](C)C(=O)N1CCC[C@H]1C(=O)N1CCC[C@H]1C(=O)N1CCC[C@H]1C(=O)N[C@@H](CO)C(N)=O
B11: SEQ ID NO: (33) (peptide)
peptide: H[dS]QGTFTSDLSKQMDSRRAQDFIEWLKKGGPSSGEPPPS-NH2
modifications: N-terminus assumed
SMILES: CC[C@H](C)[C@H](NC(=O)[C@H](Cc1ccccc1)NC(=O)[C@H](CC(=O)O)NC(=O)[C@H](CCC(N)=O)NC(=O)[C@H](C)NC(=O)[C@H](CCCNC(=N)N)NC(=O)[C@H](CCCNC(=N)N)NC(=O)[C@H](CO)NC(=O)[C@H](CC(=O)O)NC(=O)[C@H](CCSC)NC(=O)[C@H](CCC(N)=O)NC(=O)[C@H](CCCCN)NC(=O)[C@H](CO)NC(=O)[C@H](CC(C)C)NC(=O)[C@H](CC(=O)O)NC(=O)[C@H](CO)NC(=O)[C@@H](NC(=O)[C@H](Cc1ccccc1)NC(=O)[C@@H](NC(=O)CNC(=O)[C@H](CCC(N)=O)NC(=O)[C@@H](CO)NC(=O)[C@@H](N)Cc1c[nH]cn1)[C@@H](C)O)[C@@H](C)O)C(=O)N[C@@H](CCC(=O)O)C(=O)N[C@@H](Cc1c[nH]c2ccccc12)C(=O)N[C@@H](CC(C)C)C(=O)N[C@@H](CCCCN)C(=O)N[C@@H](CCCCN)C(=O)NCC(=O)NCC(=O)N1CCC[C@H]1C(=O)N[C@@H](CO)C(=O)N[C@@H](CO)C(=O)NCC(=O)N[C@@H](CCC(=O)O)C(=O)N1CCC[C@H]1C(=O)N1CCC[C@H]1C(=O)N1CCC[C@H]1C(=O)N[C@@H](CO)C(N)=O
B12: SEQ ID NO: (30) (peptide)
peptide: H[dS]QGTFTSDLSKQMDSRRAKDFIEWLKNGGPSSGAPPPS-NH2
modifications: N-terminus assumed
SMILES: CC[C@H](C)[C@H](NC(=O)[C@H](Cc1ccccc1)NC(=O)[C@H](CC(=O)O)NC(=O)[C@H](CCCCN)NC(=O)[C@H](C)NC(=O)[C@H](CCCNC(=N)N)NC(=O)[C@H](CCCNC(=N)N)NC(=O)[C@H](CO)NC(=O)[C@H](CC(=O)O)NC(=O)[C@H](CCSC)NC(=O)[C@H](CCC(N)=O)NC(=O)[C@H](CCCCN)NC(=O)[C@H](CO)NC(=O)[C@H](CC(C)C)NC(=O)[C@H](CC(=O)O)NC(=O)[C@H](CO)NC(=O)[C@@H](NC(=O)[C@H](Cc1ccccc1)NC(=O)[C@@H](NC(=O)CNC(=O)[C@H](CCC(N)=O)NC(=O)[C@@H](CO)NC(=O)[C@@H](N)Cc1c[nH]cn1)[C@@H](C)O)[C@@H](C)O)C(=O)N[C@@H](CCC(=O)O)C(=O)N[C@@H](Cc1c[nH]c2ccccc12)C(=O)N[C@@H](CC(C)C)C(=O)N[C@@H](CCCCN)C(=O)N[C@@H](CC(N)=O)C(=O)NCC(=O)NCC(=O)N1CCC[C@H]1C(=O)N[C@@H](CO)C(=O)N[C@@H](CO)C(=O)NCC(=O)N[C@@H](C)C(=O)N1CCC[C@H]1C(=O)N1CCC[C@H]1C(=O)N1CCC[C@H]1C(=O)N[C@@H](CO)C(N)=O
B13: SEQ ID NO: (37) (peptide)
peptide: H[dS]QGTFTSDLSKQMDSRRAQEFIEWLKNGGPSSGAPPPS-NH2
modifications: N-terminus assumed
SMILES: CC[C@H](C)[C@H](NC(=O)[C@H](Cc1ccccc1)NC(=O)[C@H](CCC(=O)O)NC(=O)[C@H](CCC(N)=O)NC(=O)[C@H](C)NC(=O)[C@H](CCCNC(=N)N)NC(=O)[C@H](CCCNC(=N)N)NC(=O)[C@H](CO)NC(=O)[C@H](CC(=O)O)NC(=O)[C@H](CCSC)NC(=O)[C@H](CCC(N)=O)NC(=O)[C@H](CCCCN)NC(=O)[C@H](CO)NC(=O)[C@H](CC(C)C)NC(=O)[C@H](CC(=O)O)NC(=O)[C@H](CO)NC(=O)[C@@H](NC(=O)[C@H](Cc1ccccc1)NC(=O)[C@@H](NC(=O)CNC(=O)[C@H](CCC(N)=O)NC(=O)[C@@H](CO)NC(=O)[C@@H](N)Cc1c[nH]cn1)[C@@H](C)O)[C@@H](C)O)C(=O)N[C@@H](CCC(=O)O)C(=O)N[C@@H](Cc1c[nH]c2ccccc12)C(=O)N[C@@H](CC(C)C)C(=O)N[C@@H](CCCCN)C(=O)N[C@@H](CC(N)=O)C(=O)NCC(=O)NCC(=O)N1CCC[C@H]1C(=O)N[C@@H](CO)C(=O)N[C@@H](CO)C(=O)NCC(=O)N[C@@H](C)C(=O)N1CCC[C@H]1C(=O)N1CCC[C@H]1C(=O)N1CCC[C@H]1C(=O)N[C@@H](CO)C(N)=O

Experiments:
[1] = target: human glucagon receptor (human, UniProt P47871 26-477); test: cell-based or functional assay
[2] = target: human GLP-1 receptor (human, UniProt P43220 24-463); test: cell-based or functional assay

Chain of human glucagon receptor (P47871 26-477): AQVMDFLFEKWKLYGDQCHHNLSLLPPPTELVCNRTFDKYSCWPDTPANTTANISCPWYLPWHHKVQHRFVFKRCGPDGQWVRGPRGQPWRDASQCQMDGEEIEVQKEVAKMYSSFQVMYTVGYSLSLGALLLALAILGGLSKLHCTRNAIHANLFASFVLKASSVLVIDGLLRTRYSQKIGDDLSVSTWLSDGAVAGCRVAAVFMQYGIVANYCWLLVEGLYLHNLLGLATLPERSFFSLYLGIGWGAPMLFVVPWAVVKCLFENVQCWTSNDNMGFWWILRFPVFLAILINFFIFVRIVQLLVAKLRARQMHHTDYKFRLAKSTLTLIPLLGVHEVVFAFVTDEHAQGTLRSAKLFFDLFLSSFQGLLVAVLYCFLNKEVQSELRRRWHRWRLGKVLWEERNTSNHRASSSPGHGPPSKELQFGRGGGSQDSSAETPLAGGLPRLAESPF

Binder	EC50 hGlucagonR (cAMP formation) [1]	EC50 hGLP-1R (cAMP formation) [2]
B1	2320 pM	25.4 pM
B2	35.1 pM	20.3 pM
B3	16700 pM	31.3 pM
B4	132 pM	10.9 pM
B5	1180 pM	8.1 pM
B6	149 pM	28 pM
B7	683 pM	4.6 pM
B8	45.8 pM	18.9 pM
B9	22.5 pM	14 pM
B10	43 pM	89.4 pM
B11	347 pM	138 pM
B12	1050 pM	50.5 pM
B13	58.2 pM	75.9 pM
